In paper PMC1904291:

How the values were obtained:
Assay in all cases: EMSA
I-CreI Δ1 = biological target: T1, I-CreI Δ1 (UniProt P05725 1-137)
T1 sequence: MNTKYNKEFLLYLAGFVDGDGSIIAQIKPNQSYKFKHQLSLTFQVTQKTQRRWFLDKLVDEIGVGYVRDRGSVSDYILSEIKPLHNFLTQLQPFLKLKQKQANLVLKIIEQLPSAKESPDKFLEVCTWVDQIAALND

I-CreI = biological target: T2, I-CreI (UniProt P05725 1-163)
T2 sequence: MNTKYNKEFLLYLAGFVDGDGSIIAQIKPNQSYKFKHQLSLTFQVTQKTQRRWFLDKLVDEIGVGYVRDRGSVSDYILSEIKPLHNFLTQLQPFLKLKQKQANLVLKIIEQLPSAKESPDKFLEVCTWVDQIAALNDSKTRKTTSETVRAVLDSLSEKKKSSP

I-CreI GG = biological target: T3, I-CreI GG (UniProt P05725 1-163, K142G;T143G)
T3 sequence: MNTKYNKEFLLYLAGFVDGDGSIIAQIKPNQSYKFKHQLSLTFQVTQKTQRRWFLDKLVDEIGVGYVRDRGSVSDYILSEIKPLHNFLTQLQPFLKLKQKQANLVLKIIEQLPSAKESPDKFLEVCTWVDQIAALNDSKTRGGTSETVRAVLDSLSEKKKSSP

I-CreI S138A = biological target: T4, I-CreI S138A (UniProt P05725 1-163, S138A)
T4 sequence: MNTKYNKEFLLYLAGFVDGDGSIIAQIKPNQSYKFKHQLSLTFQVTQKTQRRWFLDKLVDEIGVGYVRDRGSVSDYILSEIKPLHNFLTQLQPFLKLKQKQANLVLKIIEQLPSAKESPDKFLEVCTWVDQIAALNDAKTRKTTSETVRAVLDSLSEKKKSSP

I-CreI AM = biological target: T5, I-CreI AM (UniProt P05725 1-163, S138A;K139M)
T5 sequence: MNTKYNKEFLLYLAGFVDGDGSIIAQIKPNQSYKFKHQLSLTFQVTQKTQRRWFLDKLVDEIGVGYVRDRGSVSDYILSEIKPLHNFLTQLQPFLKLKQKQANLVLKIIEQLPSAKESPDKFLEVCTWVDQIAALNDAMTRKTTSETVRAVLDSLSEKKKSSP

I-CreI K139M = biological target: T6, I-CreI K139M (UniProt P05725 1-163, K139M)
T6 sequence: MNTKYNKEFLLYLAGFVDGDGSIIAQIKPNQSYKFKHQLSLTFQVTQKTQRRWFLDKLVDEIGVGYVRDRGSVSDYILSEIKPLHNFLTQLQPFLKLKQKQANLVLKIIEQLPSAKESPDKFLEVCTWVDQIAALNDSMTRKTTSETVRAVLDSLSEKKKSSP

B1: 6-FAM I-CreI target duplex (dsDNA)
DNA 1: GCAAAACGTCGTGAGACAGTTTGC
DNA 2: GCAAACTGTCTCACGACGTTTTGC
Does B1 bind (I-CreI Δ1)?
Result: no binding

And the Kd (I-CreI)?
The Kd was 0.2 nM.

And the Kd (I-CreI GG)?
The Kd was 50 nM.

What about the Kd (I-CreI S138A) of the same binder?
Its Kd is 250 nM.

What about the Kd (I-CreI AM) of the same binder?
Its Kd is 1240 nM.

What about the Kd (I-CreI K139M) of the same binder?
Its Kd is 110 nM.
